In a protein production outcome set (Wang et al. 2014):

Test: label from the status in PepcDB records

Sequence | protein production
MGYTLAEFLAHAIALETEAAERYVELADMMEAHNNLDTATVFRDMARFSTLHGDEIKQRSRALELPKLMSWQYRWKTPPEVGDENDIHYLMTPYHALRYARDNEIRGMEYYKEAAANSADPEVKRLGADFAAEEAEHVVALDKWIEKTPRPSITWSEDADPAQCVD | not failed
MHAELYRTRKRWYESAWPGAGFWRGANDTLPVTNYITYPANFDQPDGQSLTPLTMAAMMGNVKFVKTLLSHYDVDLDRECNVIYDGMVVYGATALWVAAGMGHLQIVKMLVQAGAAINHNTKAQSSPLRAACYEGRLDIVEFLIDNGADVNATNLFNNNTLMIAAYKGHHLVVKTLLQNGSRANDQALCGATALHYAAESGHLDVVVALLDHGATLKKNELGITPALQAAERLHEDVLEAFIERPELMSLEEQITALELLGATYANDKIKYDVNKAYGYLLRAMQLRYSNPRGVIRKRVQPTVPAYDNWLETENLPELYAIKLNHHSIHMESLAIRERILGRNNPELPQAIIYRGAVMADQGRFYQCQVLWNYAIDLRMRNNVSVDRDLLRFAQLFAQILRVENHNLTLDHVLPVLAKCQQEIENNKFKIKEAKPNACPSLWQDQNNQNCITALYLIKIVTHLARRKKDQNIDEEHIQQLFLVVRKFIQNDTRLQDGQTLLHIAVNGVMPVDEFYTNEMCRFPCYATALVLVHCGASVVAVDSDRNTPLHILVTKVNTTQDRQAEMARILELFVEAGAHLDAVNAAGQTAATACKLPILANRLHAHQNAHTSLKCLAARSIATNRLNFKGLIPTQLEAFIQMHSVRKVLP | failed
MHAFPLTLDNRLAEALPLWRNLARTDRAPRRNIDLADWKADWRELIAALDRFSRSHGYRQPFAAQGHAALENAWAWGQAAENASTLLLKAIDRGLAGAELRSIYLETAALWLDYSRLLGAARDSLREQGEVDFETAPALAPRTGQYPFALQLLAMGVLLDAQELIPALVEEVLQFDTDRLLDYLGAAALGLTSASEETFHPRPFGQLRAFFEEADGSDAQALAPYLQSQYREFFQLSPKAQKKTRRLTGPYAWGWWAMEVSALGVLYGWDDGVLRASPHYLGDLVDYARARGDA | not failed
MHCDDVMLPAALHRESCPAPEGVVTVADTTRNASGHARPRISIIIPAWNIAPWIGQTLRSILSQTVDDFECIVIDDGSTDGTAQVVASVADPRIRCIRQPNAGVSAARNRGIAEAQGAFITFLDGDDYWLPCFLETLLPPLLTRPEVDLVYCGMTMFMDDDGTVKPQPWGNVHATGNVWWDMLSDSVMLMGAWLARAEVVKGCRPFDPTLRVGEDRDFLLSMLEDIYHQRHHEAVGIDARLLRYRQRRGSGVRQVADALQCEWHMMDRHLRHEGIPPAVRRRAYSDLAFKMGVIAAFGARDIALALRWYGKAFALCPMNGNLYWLPLRKMFLSLRPRRRLHMKVLFLSARADFGGGPEHVLQLLRRLPPDVEAAVACPEDVPYWERFRNIVGDDNMFSMPHRAFTLEAVARLRRFCRKRGFDVLHAHGKGAGLYARVLSLLCGIPSVYTFHGVHLGGYGPLKRWLYGAYERAASWCTRRGIAVSRGERDAIEAHGLMPASKVSVIMNGVEMPEGTAPRPAGPPWLVVSFSRFDMQKNSLFLLDVARALQEQGRLDGFRFLLVGDGPDRARLLEQAAAQGLGDRVSCPGATPTPHEAYAGALCYFSSSRWEGMPLAVLEAMAHGLPVVATDVVGNRDAVADGVTGLLYPEGDAGAAARGLVRLADEAALWAAMAHEARAWVATRHDVQRMADRTFHELRKACGRA | failed
MHCNDGGPATLGLFSDSDLQQPARVEVLGPQSRVLRGFALPWVEALLPQLDAVLAAAPFRQMQTPGGFTMSVGLSSCGQLGWTTDRSGYRYSPIDPQSQRPWPALPKVFQELAEAAAEAAGFPGFAPDSCLINCYRPGAKMSLHQDKNERDYSAPIVSLSLGLPAIFLFGGRQRSDKSQRVALLHGDVVVWGGVDRLRYHGVLALKDGHHPLLGQQRINLTLRRAGLEHHHHHH | failed
MHCRIRNTISCSNYIFSAVWNFLISVFINKTNFNNSVYCRIFKVSIGLRKSISSTTRTRWVPVVFICSRSTNRWTGARSVNPIRNLEHHHHHH | failed
MHEIFTMMLAVYDRAALMLICLFFLIRLRLFRELLHKSAHTPKELLAVTAIFSLFALFSTWSGVPVEGSLVNVRIIAVMSGGILFGPWVGAIVGAIAGVHRYLIDIDGVTAVPCFITSIVAGLLSGLINRKVAREQRWKIGILAGMMCETLTMILVVVWAPSLSLGVDIVSKIGIPMILGSVCIGFIVLLVQSVEGEKEASAARQAKLALDIANKTLPLFRHVNSDSLRQVCEIIRRDITADAVAITNTEHVLAYVGVGEANYQRHDDMISPTTRQAIRYGKIIIKNNDEAHRTPEIHSLMVIPLWEKGVVTGTLKIYYCHAHRITSTLQEMAIGLSQIISTQLEVSRAEQLREMANKAELRALQSKINPHFLFNALNAISSSIRLNPDTARQLIFNLSRYLRYNIELKDDEQIDIKRELYQIKDYIAIEQARFGDKLTVIYDIDDDVSCVIPSLLIQPLVENAIVHGIQPCKGKGVVTIGINECGNRVRISVRDTGNGIDPAVVARVEADEMPGNKIGLLNVHHRVKLLYGEGLHIRNLTPGTEIAFYVPNNSTPQALTESLLS | failed
MHESMREIAERATFQSFANCYRREIDPGMPSQHRPECGDRRTYVEWSCPMAAATLRAEVERESLCGPFRFGRVFICRAPDNAWHEIAPLRALYLMVQECYSGIGAARAEALRNEEAELLGRVLASYQCIADSLQRSSGEAGRTFLDGEQSLMFGHWLHPTPKSRQGMADWQQPTYAPEHRGQFQLTYFAVDAALLRYGSAGDVSVSGILETLLPEADRPTLRPGEALIPLHPMQAEAVMLSPDIAELAREGRLRRLGPFGAEFSPTSSVRTVYSPAIPWMLKFSLPVRITNSLRINRMPELKAGVAMSRLFARTDFLARHPCFRLIRDPAYLTLGLPGRTESGFEIIFRENPFTTGNETKGITIAALTADPPPHARSRLDVLVREYAAQQGLPVASACRHWFSAYLDCALDPLVRLYNELGVALEAHQQNVLLDVSSGLPTASYYRDNQGFYLSNAHRDRLVSLVPETAEIGGLYFDDHVIQERFAYYLIVNQICSMIARMGQDRLIDEEALLIMLRERLNGLARELAGVGRDFASGIVDRPTVAAKANLLTRMLDIDELEAEDGRAIYVQLPNPLFGDRRSARRGEARAASR | failed
MHEWGLSEELKIQTKQMIEIAEKELSIMRNAIDKEDECILCKMEDIHHMLANVQTLAATYYIQAYLSPYTESSSFITTAIQHLSARKHGALIVVERNETLEALIQTGTTLNAHLTAPLLESIFYPGNPLHDGAVLVKNNHIVSAANILPLTKSTEVDPELGTRHRAAIGLSEKSDALILVVSEETGRTSFALNGILYTISL | not failed
MHFRLILSMIVVTHTAVVQVLIHMEWIADPSIWAGLVTLVVIELVLGIDNLVFIAILAEKLPPAQRDRARITGLMLAMVMRLLLLASISWLVTLTKPLIVFHDFSFSARDLIMLFGGLFLLFKATVELNERLEGKDSDNPTQRKGAKFWAVVAQIVVLDAIFSLDSVITAVGMVDHLAVMMAAVVIAISLMLMASKALTRFVNSHPTIVILCLSFLLMIGFSLIAEGFSFIIPKGYLYAAIGFSVMIEALNQLAQFNRRRFLSANMTLRQRTTEAVMNLLSGQKEKAELDADTASLVADQDQHPLFNPQERLMIERVLNLNQRSVSSIMTSRHDIERINLSAPEEEIRSLVEKNQHTRLVVTGGKDNEDLLGVVHVIDLLQQSLRQEPLDLQALVRQPLVFPEGLPLLSALEQFRQARTHFAFVVDEFGSVEGIVTLSDVMETIAGNLPNEVEEIDARHDIQHHQDGSWTVNGHMPLEDLVQYVPLPLDDKREYHTVAGLLMEYLQHVPQVGETIEIDGYTLRTLQVDSHRVQKVQIVPPVKQDELDYEV | failed
MHFTRALRIQLIPSFFFRAIYPLVVLLILLHAQSGLAETIYRSTDSHGRTLYSDIPTPAAKPLQPATPPARSKYRVTRVIDGDTIVLENNKRVRLLGINAPETGNRYHPGEPGGADAKKWLRGKLQGRSVYLEHDRQTHDHYKRMLAHLYLPDGEHINLSLVEKGLAIANLIPPNLLHANTLIRAQQRAETRKLGIWSMQHYQPRPLIKLTEKPFGWQRYRVKAKVLKRNHRFSRLIISDNLDLSFANRDLALFPPLETYLNRPLEVRGWVSRRKNHFSIRIQHPSALILY | failed
MHGVEFAPLERQHGSQVLALLRGTLLVPLPRLHQRLEEAYERDARLGLAQVALCRLAGNAEKVVGVLLARVATRRTCCAQVYIDAVAVDAVFQGQGIGSRLLLRVLTPCLPDGLEVREVFLHTPLQATELVAFYRSCGFESDDEVIDNYYPRRWMPQAQALVLRWRPPTAAQHQHEERKGPQDADVS | not failed
MHIPLWHSRVPSATLSRSHSVLLPLSLTAHSPKRARLVAMSTNPEIPQWFALTPRVWTTSVEPESVTCGLVAGEDHVLLIDTGSTPEQGHTLAMSAARMLGRPVDRIVVTHHHYDHSGGLPGITDAEVWMHEAALAHCPDLHVDHPVSLMAYVNLGGLGAEVIHPGPAHTDGDLIVIVRDEKITFVGDLVETAGEPQSDGTTDVRGWPRAIDSVITGTDGAGLYVPGHGQPIDATDVMNQRAQLAERIPTNIPLTDRHIPLP | failed
MHKYRLVAKKGEGTFSEVLKAQCIKNGKYVAIKCMKNHFDSLDQVNNLREIQALRRLSPHANIIKLLEVLYDQPTGRLALVFELMDMNIYELIRGRRHYVAEERIKNYMYQLMKSMDHMHRNGIFHRDIKPENILIMDDCLKLADFGSCRGIYSKQPYTEYISTRWYRAPECLLTDGYYNYKMDMWGVGCVFFEIVSLFPLFPGTNELDQITKIHNILGTPPPDLLAKMKKRSAHMDFNFPPKEGSGVAKLIPHVNPECVDLIVKLLMYNPDERLSARQALRHPYFRDLREAEKRQKALLAPDVSNHFTAMEADKARQQQTVSSTGSDHEHPTSAGGDGGAGTGAVGTHDGSAAAAAAAAALPSISGARGHAGPEGGHDNDMG | not failed
MHLVNIRNQPLGNTIIQVLGVMAFGLFAAVVYMKTSNLIFAIVVHAMNDFMAIMASSGSLSSQQTNPLTILYEWFIFGTLAFALFYTGWTQREKFIAAIQERSPQLTARKLPTLAQSSTFRRIFALVSMIYGILILPTMLLFSKLSTSAGSRAEIANKALPIYLLFLLGIALYIFLIVFFDFHLGNLCWLLLPYIGGPVFALIALVNGARPLTEKTNQSKTINNKTPN | failed
MHMALIHSILMGAVAGMRSMTPLAAVANAARTGKLPADNGAPALLANPLASAGMLALAGGELAGDKMKTAPDRIVLPGMIARIATGVIVGTALAPREQRGIAALLGATTAVAAAYLTFNARMRAIERYGQTSTGVVEDAISVGAATLIVRDAAKR | failed
MHNHNNRLVITPGEPAGVGPDLAITLAQQDWPVELVVCADPALLLARASQLNLPLQLREYQADQPAIAQQAGSLTILPVKTAVNVVPGKLDVGNSHYVVETLAKACDGAISGEFAALVTGPVQKSIINDAGIPFIGHTEFFADRSHCQRVVMMLATEELRVALATTHLPLLAVPGAITQASLHEVITILDNDLKTKFGITQPQIYVCGLNPHAGEGGHMGHEEIDTIIPALNTLRQQGINLIGPLPADTLFQPKYLQHADAVLAMYHDQGLPVLKYQGFGRAVNITLGLPFIRTSVDHGTALELAATGTADVGSFITALNLAIKMINNSNE | not failed
MHNLVPAPKQTQSVLIKNATVHTVIQGVLTNTDVLIENGKISALGPQLSTNTTASTQVVDASGKHLYPGLIALDTSLGLEHHHHHH | failed
